According to US8143372B2, “Synthetic regulators of ferritin protein nanocage pores and methods of use thereof” (Children's Hospital & Research Center Oakland, priority 2007, dated 2012):
No end group written: not given here.

Target: T1, recombinant, frog ferritin H protein nanocages (wild type) (Aquarana catesbeiana, UniProt P07229)
T1 construct: made in house
T1 sequence (P07229 1-176): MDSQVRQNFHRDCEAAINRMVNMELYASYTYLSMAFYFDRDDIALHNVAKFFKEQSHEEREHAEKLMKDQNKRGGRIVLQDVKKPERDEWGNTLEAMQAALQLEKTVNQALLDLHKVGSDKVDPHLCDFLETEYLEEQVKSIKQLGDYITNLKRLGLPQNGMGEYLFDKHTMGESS
Assay: Ferritin demineralization: formation of Fe2+-bipyridyl after adding NADH/FMN
Type: biochemical
Details: for Initial rate of Fe^2+ bipyridyl formation, pH = 7.0: 2.5 mM FMN, 2.5 mM NADH, 2.5 mM bipyridyl, absorbance 522 nm
Excerpt: The effect of the test agent on demineralization (e.g., on release of iron from ferritin) is generally carried out by contacting the test agent with ferritin in the presence of a reductant and an iron chelating agent such as bipyridyl or desferrioxamine. A suitable reductant comprises nicotinamide adenine dinucleotide reduced form (NADH) and flavin mononucleotide (FMN). The reductant reduces Fe(III) to Fe(II); and the iron chelating agent forms a complex with the Fe(II). Iron release from ferritin can be measured using any convenient method, including methods known in the art. The following is a non-limiting example of a suitable method. In this example, iron release from ferritin is measured by the formation of Fe(II)-bipyridyl. Iron release can be initiated by the addition of 2.5 mM bipyridyl, 2.5 mM FMN, and 2.5 mM NADH to ferritin in 0.1 M MOPS (pH 7.0) and 0.2 M NaCl. Formation of Fe(II)-bipyridyl is detected by measuring absorbance at 522 nm. See, e.g. Liu et al. (2003) Proc. Natl. Acad. Sci. USA 100:3653; and Takagi et al. (1998) J. Biol. Chem. 273:18685. Desferrioxamine can also be used as an iron chelator. See, e.g., Breuer et al. (2001) Blood 97:792.
The strategy used to identify molecules that would modulate ferritin protein nanocage pore function had two components: (i) searching a combinatorial peptide library for ferritin binding peptides, and (ii) analyzing the effect of reductants on the ferritin mineral inside the protein nanocages. Peptides were selected as the molecules of choice for pore alterations because of the selectivity of urea (1 mM) and guanidine (0.1 mM) in pore unfolding, observed previously. Liu and Theil (2003) Proc. Natl. Acad. Sci. U.S.A. 100:3653. Changes in ferritin protein nanocage pore gating can be analyzed as changes in the rate of ferritin iron demineralization, measured as formation of colored Fe chelates, when reductant (NADH/FMN) is added. Jones et al. (1978) Biochemistry 17:4011.
The peptides were mixed with wild type ferritin; demineralization was initiated by addition of NADH/FMN, and the appearance of Fe^2+-bipyridyl measured (FIG. 2). Three of the peptides (2, 3, and 5) had no effect on rates of formation of Fe^2+-bipyridyl, compared to wild type ferritin H protein nanocages, while Peptide 4 (Group B, eluted with ferritin H protein nanocages, after elution with ferritin H-L134P protein nanocages) decreased the rate 63%. Peptide 4 has 3 His and 1 Asp and could bind to charged residues around the pore. The peptide interaction with ferritin protein nanocage could interfere with unfolding and/or reductant access to the ferric mineral, or might induce conformational changes at the pore or elsewhere.
FIG. 2. Effect of binding peptides on removal of iron from the ferritin mineral. Demineralization of ferritin (recombinant, frog ferritin H protein nanocages; protein: 2.06 μM; Fe: 0.99 mM, MOPS: 100 mM, NaCl: 100 mM, pH 7.0) was initiated with reductant (final concentration: 2.5 mM FMN, 2.5 mM NADH), with bipyridyl (2.5 mM); formation of Fe^2+-bipyridyl was monitored at 522 nm. Initial reaction rates were calculated as described previously (Liu et al. (2003) Proc. Natl. Acad. Sci. USA 100:3653). Ferritin binding peptides, identified in a combinatorial, heptapeptide, phage-display library (1.3×10^9 members, New England Biolabs), were mixed with mineralized ferritin protein nanocages for one hour before initiating demineralization. Peptide 2 (Group A, eluted with H-L134P ferritin protein nanocage) and Peptides 3 and 5 (Group B, eluted with wild type ferritin protein nanocage), had no effect. The data are averages from triplicates in 2-5 independent experiments with two different protein preparations; the error is the standard deviation. […]

[1] = compared to wild type ferritin H protein nanocages without peptide

Substance | Effect on rates of formation of Fe^2+-bipyridyl [1] | Initial rate of Fe^2+ bipyridyl formation, pH = 7.0 (H-wt ferritin + peptide) | further results
SHTSPSI (SEQ ID NO:4) (SHTSPSIGG; not fully specified (N-terminus)) [Peptide 2, heptapeptide from the phage display library, synthesized as an undecapeptide with HS at the N-terminus and GG at the C-terminus] | no effect | – | –
HHALGGS (SEQ ID NO:6) (HHALGGSGG; not fully specified (N-terminus)) [Peptide 5, heptapeptide from the phage display library, synthesized as an undecapeptide with HS at the N-terminus and GG at the C-terminus] | no effect | – | –
GDWYLGD (SEQ ID NO:5) (GDWYLGDGG; not fully specified (N-terminus)) [Peptide 3, heptapeptide from the phage display library, synthesized as an undecapeptide with HS at the N-terminus and GG at the C-terminus] | no effect | – | –
HSHHALDGSGG (SEQ ID NO:2) [Peptide 4] | – | 0.41 ± 0.05 (mMol) × 10^3S^−1 | Decrease of the rate of formation of Fe^2+-bipyridyl [1]: 63%
HSNTYYFPKGG (SEQ ID NO:7) [Peptide 1] | – | 6.80 ± 0.37 (mMol) × 10^3S^−1 | Rate Change with Temperature (Arrhenius equation) E‡ (Table 1, H-wt ferritin + peptide): 19.1 ± 0.621 kcal/mol; E‡ in the Arrhenius plot (wild type ferritin complexed with peptide, FIG. 2B): 20.8 kcal/mol
